Assay results taken from patent US20260125454A1 (SHANGHAI JUNSHI BIOSCIENCES, published 2026).
Changes are numbered by the printed parent chain.

B1: hu219 (antibody, V domains shown)
VH: QVQLVQSGAEVKKPGASVKVSCKASGYTFTDYNMHWVRQAPGQGLEWMGYIYPYNGHTVYNQKFRNRVTLTVDTSSSTAYMELRSLRSDDTAVYYCAREGLGGYWGQGTLVTVSS
VL: DIVLTQSPDSLAVSLGERATINCKASQNIDYDGYTYLNWYQQKPGQPPKVLIYSIFNLESGVPDRFSGSGSGTDFTLTISSLQAEDVAVYYCQQSNEVPYTFGQGTKLEIK
notes: 3H10 HC-2/3E5 LC-1
B2: hu217 (antibody, V domains shown)
VH: B1 VH
VL: DIVLTQSPDSLAVSLGERATINCQASQNIDGNTYMNWYQQKPGQPPKVLIYSIFNLESGVPDRFSGSGSGTDFTLTISSLQAEDVAVYYCQQSNDYPYTFGQGTKLEIK
notes: 3H10 HC-2/2B8 LC2-1
B3: hu216 (antibody, V domains shown)
VH: B1 VH
VL: B1 VL with Y31F, T35A, L37M, Q42H, I55V, N96H
notes: 3H10 HC-2/1F5 LC1-4
B4: hu141 (antibody, V domains shown)
VH: B1 VH with Y50N, G56A, H57G, R65N, R84S, S85R
VL: B1 VL
notes: 2B8 HC1-3/3E5 LC-1
B5: hu116 (antibody, V domains shown)
VH: B1 VH with Y50N, H57G, R65N, R84S, S85R
VL: B1 VL with D32G, T35S, L37M, I55V, V98A
notes: 2B8 HC1-1/3H10 LC2-1
B6: hu139 (antibody, V domains shown)
VH: B1 VH with Y50N, G56A, H57G, R65N, R84S, S85R
VL: B2 VL
notes: 2B8 HC1-3/2B8 LC2-1
B7: hu152 (antibody, V domains shown)
VH: B1 VH with A24T, G44R, Y52S, H57G, V59A, R65K, N66F, R84S, D89E
VL: B2 VL
notes: 3E5 HC-1/2B8 LC2-1
B8: hu206 (antibody, V domains shown)
VH: B1 VH with L70M, R98K
VL: B1 VL
notes: 3H10 HC-1/3E5 LC-1
B9: hu220 (antibody, V domains shown)
VH: B1 VH
VL: B1 VL with D32G, T35S, L37M, I55V, V98A
notes: 3H10 HC-2/3H10 LC2-1
B10: hu11 (antibody, V domains shown)
VH: B1 VH with Y52F, H57V, T58A, Q62R, N66S, V72I
VL: B1 VL
notes: 1B2 HC-1/3E5 LC-1
B11: hu61 (antibody, V domains shown)
VH: B1 VH with Y32F, H57D, T58V, K63N, R65T
VL: B2 VL
notes: 1F5 HC-3/2B8 LC2-1
B12: hu102 (antibody, V domains shown)
VH: B1 VH with G44R, I51V, H57G, T58S, V59A, R65K, N66S, R84S, D89E
VL: B1 VL
notes: 2A2 HC-1/3E5 LC-1
B13: hu165 (antibody, V domains shown)
VH: B1 VH with G44R, Y52S, H57G, V59A, R65K, N66F, R84S, D89E
VL: B2 VL
notes: 3E5 HC-2/2B8 LC2-1
B14: hu125 (antibody, V domains shown)
VH: B1 VH with Y50N, H57G, R65N
VL: B1 VL with Y31F, T35A, L37M, Q42H, I55V, N96H
notes: 2B8 HC1-2/1F5 LC1-4
B15: hu180 (antibody, V domains shown)
VH: B1 VH with Y52S, H57G, V59A, R65K, N66F, R84S, S85R, A92V
VL: B1 VL
notes: 3E5 HC-3/3E5 LC-1
B16: hu142 (antibody, V domains shown)
VH: B1 VH with Y50N, G56A, H57G, R65N, R84S, S85R
VL: B1 VL with D32G, T35S, L37M, I55V, V98A
notes: 2B8 HC1-3/3H10 LC2-1
B17: hu48 (antibody, V domains shown)
VH: B1 VH with Y32F, G44R, H57D, T58V, K63N, R65T, R84S, D89E
VL: B2 VL
notes: 1F5 HC-2/2B8 LC2-1
B18: hu113 (antibody, V domains shown)
VH: B1 VH with Y50N, H57G, R65N, R84S, S85R
VL: B2 VL
notes: 2B8 HC1-1/2B8 LC2-1
B19: hu207 (antibody, V domains shown)
VH: B1 VH with L70M, R98K
VL: B1 VL with D32G, T35S, L37M, I55V, V98A
notes: 3H10 HC-1/3H10 LC2-1
B20: hu24 (antibody, V domains shown)
VH: B1 VH with G44R, Y52F, H57V, T58A, Q62R, N66S, R84S, D89E
VL: B1 VL
notes: 1B2 HC-2/3E5 LC-1
B21: hu12 (antibody, V domains shown)
VH: B1 VH with Y52F, H57V, T58A, Q62R, N66S, V72I
VL: B1 VL with D32G, T35S, L37M, I55V, V98A
notes: 1B2 HC-1/3H10 LC2-1
B22: hu115 (antibody, V domains shown)
VH: B1 VH with Y50N, H57G, R65N, R84S, S85R
VL: B1 VL
notes: 2B8 HC1-1/3E5 LC-1
B23: hu203 (antibody, V domains shown)
VH: B1 VH with L70M, R98K
VL: B1 VL with Y31F, T35A, L37M, Q42H, I55V, N96H
notes: 3H10 HC-1/1F5 LC1-4
B24: hu35 (antibody, V domains shown)
VH: B1 VH with T30I, Y32F, G44R, H57D, T58V, K63N, R65T, R84S, D89E
VL: B2 VL
notes: 1F5 HC-1/2B8 LC2-1
B25: hu126 (antibody, V domains shown)
VH: B1 VH with Y50N, H57G, R65N
VL: B2 VL
notes: 2B8 HC1-2/2B8 LC2-1
B26: hu112 (antibody, V domains shown)
VH: B1 VH with Y50N, H57G, R65N, R84S, S85R
VL: B1 VL with Y31F, T35A, L37M, Q42H, I55V, N96H
notes: 2B8 HC1-1/1F5 LC1-4
B27: hu9 (antibody, V domains shown)
VH: B1 VH with Y52F, H57V, T58A, Q62R, N66S, V72I
VL: B2 VL
notes: 1B2 HC-1/2B8 LC2-1
B28: hu60 (antibody, V domains shown)
VH: B1 VH with Y32F, H57D, T58V, K63N, R65T
VL: B1 VL with Y31F, T35A, L37M, Q42H, I55V, N96H
notes: 1F5 HC-3/1F5 LC1-4
B29: hu8 (antibody, V domains shown)
VH: B1 VH with Y52F, H57V, T58A, Q62R, N66S, V72I
VL: B1 VL with Y31F, T35A, L37M, Q42H, I55V, N96H
notes: 1B2 HC-1/1F5 LC1-4
B30: hu22 (antibody, V domains shown)
VH: B1 VH with G44R, Y52F, H57V, T58A, Q62R, N66S, R84S, D89E
VL: B2 VL
notes: 1B2 HC-2/2B8 LC2-1
B31: hu138 (antibody, V domains shown)
VH: B1 VH with Y50N, G56A, H57G, R65N, R84S, S85R
VL: B1 VL with Y31F, T35A, L37M, Q42H, I55V, N96H
notes: 2B8 HC1-3/1F5 LC1-4

Target: T1, Biotin-huCGRPaSA (human, not fully specified; biotin (position not given))
T1 construct: exact construct ('aSA') not explained; also called Biotin CGRPaSA; full-length (1-37) CGRP
T1 peptide: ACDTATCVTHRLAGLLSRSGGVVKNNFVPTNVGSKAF
Experiment: ELISA, supernatant; relative to chimeric C245
Experimental: Biotin CGRPaSA was diluted with PBS (Hyclone) to 1.0 μg/mL, and the dilution was added to a microplate at 100 μL/well. The plate was let stand in an incubator at 37° C. and coated for 90 min and then washed, and 2% BSA was added to the plate at 200 μL/well. The plate was incubated in an incubator at 37° C. for 90 min and then washed. The humanized antibodies in Table 8 and the reference antibody (chimeric antibody C245) were diluted to 1000 ng/mL with a diluent (2% BSA) with a dilution factor of not more than 10. Then, the chimeric antibodies and the reference antibody were serially 2.5-fold diluted on a sample dilution plate. All the chimeric antibody solutions and the reference antibody solution were added into plates at 100 μL/well, and the plates were incubated in a thermostat incubator at 37° C. for 60 min and washed. An HRP-conjugated goat anti-human antibody IgG (manufacturer: Sigma, Cat. No. A0170; Fc specificity) was diluted 5000-fold with 2% BSA and added into the plates at 100 μL/well, and the plates were incubated in the thermostat incubator at 37° C. for 60 min and washed. Chromogenic reagent TMB was carefully added at 100 μL/well to avoid bubbles, and the system was incubated at 37° C. for 15 min away from light for chromogenic reaction. Finally, a 2 M hydrochloric acid solution was added at 100 μL/well to stop the reaction while avoiding bubbles, and the plates were read on a microplate reader within 10 min (wavelength: 450/620 nm).

| Binder | Relative binding activity, % [%] |
| --- | --- |
| B1 | 78 |
| B2 | 73 |
| B3 | 58 |
| B4 | 86 |
| B5 | 88 |
| B6 | 84 |
| B7 | 109 |
| B8 | 70 |
| B9 | 83 |
| B10 | 49 |
| B11 | 56 |
| B12 | 94 |
| B13 | 87 |
| B14 | 34 |
| B15 | 87 |
| B16 | 84 |

| Binder | Relative binding activity, % [%] |
| --- | --- |
| B17 | 40 |
| B18 | 44 |
| B19 | 56 |
| B20 | 73 |
| B21 | 73 |
| B22 | 98 |
| B23 | 33 |
| B24 | 65 |
| B25 | 79 |
| B26 | 14 |
| B27 | 45 |
| B28 | 11 |
| B29 | 72 |
| B30 | 76 |
| B31 | 102 |
